In IntAct's records for PubMed 29892012:

B1: Late cornified envelope protein 1B (Homo sapiens), Q5T7P3 (parent)
chain: MSCQQNQQQCQPPPKCIPKCPPKCLTPRCPPKCPPKCPPVSSCCSVSSGGCCGSSSGGSCGSSSGGCCSSGGGGCCLSHHRRRRSHCHRPQSSGCCSQPSGGSSCCGGGSGQHSGGCC
B2: Melanoma-associated antigen 8 (Homo sapiens), P43361 (parent)
chain: MLLGQKSQRYKAEEGLQAQGEAPGLMDVQIPTAEEQKAASSSSTLIMGTLEEVTDSGSPSPPQSPEGASSSLTVTDSTLWSQSDEGSSSNEEEGPSTSPDPAHLESLFREALDEKVAELVRFLLRKYQIKEPVTKAEMLESVIKNYKNHFPDIFSKASECMQVIFGIDVKEVDPAGHSYILVTCLGLSYDGLLGDDQSTPKTGLLIIVLGMILMEGSRAPEEAIWEALSVMGLYDGREHSVYWKLRKLLTQEWVQENYLEYRQAPGSDPVRYEFLWGPRALAETSYVKVLEHVVRVNARVRISYPSLHEEALGEEKGV
B3: Methanethiol oxidase (Homo sapiens), Q13228 (parent)
chain: MATKCGNCGPGYSTPLEAMKGPREEIVYLPCIYRNTGTEAPDYLATVDVDPKSPQYCQVIHRLPMPNLKDELHHSGWNTCSSCFGDSTKSRTKLVLPSLISSRIYVVDVGSEPRAPKLHKVIEPKDIHAKCELAFLHTSHCLASGEVMISSLGDVKGNGKGGFVLLDGETFEVKGTWERPGGAAPLGYDFWYQPRHNVMISTEWAAPNVLRDGFNPADVEAGLYGSHLYVWDWQRHEIVQTLSLKDGLIPLEIRFLHNPDAAQGFVGCALSSTIQRFYKNEGGTWSVEKVIQVPPKKVKGWLLPEMPGLITDILLSLDDRFLYFSNWLHGDLRQYDISDPQRPRLTGQLFLGGSIVKGGPVQVLEDEELKSQPEPLVVKGKRVAGGPQMIQLSLDGKRLYITTSLYSAWDKQFYPDLIREGSVMLQVDVDTVKGGLKLNPNFLVDFGKEPLGPALAHELRYPGGDCSSDIWI
partner: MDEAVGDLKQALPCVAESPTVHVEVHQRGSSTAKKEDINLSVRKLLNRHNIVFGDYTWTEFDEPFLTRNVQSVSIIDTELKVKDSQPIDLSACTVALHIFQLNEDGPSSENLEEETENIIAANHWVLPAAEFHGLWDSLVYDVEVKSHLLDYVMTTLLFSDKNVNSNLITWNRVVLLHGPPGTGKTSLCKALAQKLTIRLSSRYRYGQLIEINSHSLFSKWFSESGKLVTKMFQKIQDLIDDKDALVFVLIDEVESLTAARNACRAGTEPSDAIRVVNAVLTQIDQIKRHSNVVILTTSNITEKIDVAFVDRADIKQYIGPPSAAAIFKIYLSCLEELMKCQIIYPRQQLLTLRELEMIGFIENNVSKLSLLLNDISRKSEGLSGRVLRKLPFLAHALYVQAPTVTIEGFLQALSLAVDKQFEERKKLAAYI
B4: Melanoma-associated antigen 8 (Homo sapiens), P43361 (parent)
chain: B2 chain
partner: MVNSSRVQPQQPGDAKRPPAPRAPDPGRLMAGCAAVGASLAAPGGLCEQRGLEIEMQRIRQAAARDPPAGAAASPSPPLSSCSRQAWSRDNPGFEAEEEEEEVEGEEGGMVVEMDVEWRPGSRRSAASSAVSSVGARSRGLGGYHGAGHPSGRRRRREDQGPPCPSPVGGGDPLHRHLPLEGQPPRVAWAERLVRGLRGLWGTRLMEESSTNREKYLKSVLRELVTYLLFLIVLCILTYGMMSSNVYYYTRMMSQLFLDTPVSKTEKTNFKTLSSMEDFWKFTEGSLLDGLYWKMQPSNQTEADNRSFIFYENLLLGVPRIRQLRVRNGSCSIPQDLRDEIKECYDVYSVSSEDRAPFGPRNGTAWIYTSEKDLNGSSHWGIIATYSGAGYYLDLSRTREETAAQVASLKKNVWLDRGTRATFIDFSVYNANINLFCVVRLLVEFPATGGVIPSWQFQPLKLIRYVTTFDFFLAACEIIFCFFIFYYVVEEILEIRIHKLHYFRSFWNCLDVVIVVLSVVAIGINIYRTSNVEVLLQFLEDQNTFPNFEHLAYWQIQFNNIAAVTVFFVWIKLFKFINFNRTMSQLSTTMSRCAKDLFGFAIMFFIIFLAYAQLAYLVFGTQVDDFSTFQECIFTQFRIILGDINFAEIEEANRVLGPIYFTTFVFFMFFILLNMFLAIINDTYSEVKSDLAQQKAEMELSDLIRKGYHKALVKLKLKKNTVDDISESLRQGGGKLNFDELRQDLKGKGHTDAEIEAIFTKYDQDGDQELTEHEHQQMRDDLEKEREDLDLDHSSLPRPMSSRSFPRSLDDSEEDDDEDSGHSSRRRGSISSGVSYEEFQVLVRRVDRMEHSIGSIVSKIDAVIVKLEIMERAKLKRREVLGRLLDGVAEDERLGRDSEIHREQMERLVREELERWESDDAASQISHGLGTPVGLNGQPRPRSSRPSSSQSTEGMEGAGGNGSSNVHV
B5: Late cornified envelope protein 1B (Homo sapiens), Q5T7P3 (parent)
chain: B1 chain
partner: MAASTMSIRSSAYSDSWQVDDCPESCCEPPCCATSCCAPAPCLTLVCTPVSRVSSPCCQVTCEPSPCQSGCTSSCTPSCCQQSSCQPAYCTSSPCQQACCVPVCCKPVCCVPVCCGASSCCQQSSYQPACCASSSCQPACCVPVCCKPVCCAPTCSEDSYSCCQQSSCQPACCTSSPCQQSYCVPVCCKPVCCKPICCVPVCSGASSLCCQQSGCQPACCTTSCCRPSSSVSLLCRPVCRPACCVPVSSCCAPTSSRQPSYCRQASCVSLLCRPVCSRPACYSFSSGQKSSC

Variants of: B1
Conditions: with kr108_human KRTAP10-8, P60410
Sequence of kr108_human KRTAP10-8, P60410 (P60410 whole entry): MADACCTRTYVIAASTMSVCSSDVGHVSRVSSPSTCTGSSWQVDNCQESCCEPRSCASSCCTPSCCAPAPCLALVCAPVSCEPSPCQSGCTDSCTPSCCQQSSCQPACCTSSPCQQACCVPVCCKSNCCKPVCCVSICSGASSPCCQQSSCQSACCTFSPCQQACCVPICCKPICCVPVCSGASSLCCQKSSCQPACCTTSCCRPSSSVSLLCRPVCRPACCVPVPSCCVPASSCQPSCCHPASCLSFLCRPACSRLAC

| effect of a mutation on the interaction | Variant |
| --- | --- |
| disrupting interaction strength | MSCQQNQQQCQPPPKYIPKCPPKCLTPRCPPKCPPKCPPVSSCCSVSSGGCCGSSSGGSCGSSSGGCCSSGGGGCCLSHHRRRRSHCHRPQSSGCCSQPSGGSSCCGGGSGQHSGGCC |

Variants of: B1
Conditions: with kr103_human KRTAP10-3, P60369
Sequence of kr103_human KRTAP10-3, P60369 (P60369 whole entry): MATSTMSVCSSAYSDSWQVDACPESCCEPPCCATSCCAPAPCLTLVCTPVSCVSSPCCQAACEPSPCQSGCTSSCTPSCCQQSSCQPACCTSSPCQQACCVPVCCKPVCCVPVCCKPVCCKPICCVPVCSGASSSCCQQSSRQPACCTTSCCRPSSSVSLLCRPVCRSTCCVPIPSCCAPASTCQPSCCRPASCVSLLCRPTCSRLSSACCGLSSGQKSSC

| effect of a mutation on the interaction | Variant |
| --- | --- |
| disrupting interaction strength | MSCQQNQQQCQPPPKYIPKCPPKCLTPRCPPKCPPKCPPVSSCCSVSSGGCCGSSSGGSCGSSSGGCCSSGGGGCCLSHHRRRRSHCHRPQSSGCCSQPSGGSSCCGGGSGQHSGGCC |

Variants of: B1
Conditions: with kr101_human KRTAP10-1, P60331
Sequence of kr101_human KRTAP10-1, P60331 (P60331 whole entry): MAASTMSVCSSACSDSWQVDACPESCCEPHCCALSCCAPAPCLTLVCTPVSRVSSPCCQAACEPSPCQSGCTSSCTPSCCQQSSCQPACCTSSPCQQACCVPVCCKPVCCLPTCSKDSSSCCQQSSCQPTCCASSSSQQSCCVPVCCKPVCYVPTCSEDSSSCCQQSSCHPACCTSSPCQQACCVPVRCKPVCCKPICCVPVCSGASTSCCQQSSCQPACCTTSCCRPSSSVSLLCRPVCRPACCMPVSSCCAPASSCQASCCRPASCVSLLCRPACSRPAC

| effect of a mutation on the interaction | Variant |
| --- | --- |
| with no effect | MSCQQNQQQCQPPPKYIPKCPPKCLTPRCPPKCPPKCPPVSSCCSVSSGGCCGSSSGGSCGSSSGGCCSSGGGGCCLSHHRRRRSHCHRPQSSGCCSQPSGGSSCCGGGSGQHSGGCC |

Variants of: B1
Conditions: with hxa1_human HOXA1, P49639
Sequence of hxa1_human HOXA1, P49639 (P49639 whole entry): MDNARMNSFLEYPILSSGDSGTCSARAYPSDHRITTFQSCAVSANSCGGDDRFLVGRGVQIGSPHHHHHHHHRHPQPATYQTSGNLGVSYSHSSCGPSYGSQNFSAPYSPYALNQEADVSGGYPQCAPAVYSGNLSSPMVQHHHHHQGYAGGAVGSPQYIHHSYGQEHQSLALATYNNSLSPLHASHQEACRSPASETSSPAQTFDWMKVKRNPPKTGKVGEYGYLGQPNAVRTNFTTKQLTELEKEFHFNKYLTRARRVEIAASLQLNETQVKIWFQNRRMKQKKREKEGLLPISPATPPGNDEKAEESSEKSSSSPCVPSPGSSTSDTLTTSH

| effect of a mutation on the interaction | Variant |
| --- | --- |
| with no effect | MSCQQNQQQCQPPPKYIPKCPPKCLTPRCPPKCPPKCPPVSSCCSVSSGGCCGSSSGGSCGSSSGGCCSSGGGGCCLSHHRRRRSHCHRPQSSGCCSQPSGGSSCCGGGSGQHSGGCC |

Variants of: B1
Conditions: with kr105_human KRTAP10-5, P60370
Sequence of kr105_human KRTAP10-5, P60370 (P60370 whole entry): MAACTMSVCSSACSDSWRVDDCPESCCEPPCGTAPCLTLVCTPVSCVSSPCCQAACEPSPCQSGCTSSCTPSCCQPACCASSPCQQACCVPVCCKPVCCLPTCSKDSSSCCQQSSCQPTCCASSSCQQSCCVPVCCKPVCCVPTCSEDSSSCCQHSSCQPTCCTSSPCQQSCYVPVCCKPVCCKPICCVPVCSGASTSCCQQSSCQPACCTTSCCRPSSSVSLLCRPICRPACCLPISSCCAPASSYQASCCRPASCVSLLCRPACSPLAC

| effect of a mutation on the interaction | Variant |
| --- | --- |
| disrupting interaction strength | MSCQQNQQQCQPPPKYIPKCPPKCLTPRCPPKCPPKCPPVSSCCSVSSGGCCGSSSGGSCGSSSGGCCSSGGGGCCLSHHRRRRSHCHRPQSSGCCSQPSGGSSCCGGGSGQHSGGCC |

Variants of: B1
Conditions: with mdfi_human MDFI

| effect of a mutation on the interaction | Variant |
| --- | --- |
| disrupting interaction strength | MSCQQNQQQCQPPPKYIPKCPPKCLTPRCPPKCPPKCPPVSSCCSVSSGGCCGSSSGGSCGSSSGGCCSSGGGGCCLSHHRRRRSHCHRPQSSGCCSQPSGGSSCCGGGSGQHSGGCC |

Variants of: B1
Conditions: with otx1_human OTX1, P32242
Sequence of otx1_human OTX1, P32242 (P32242 whole entry): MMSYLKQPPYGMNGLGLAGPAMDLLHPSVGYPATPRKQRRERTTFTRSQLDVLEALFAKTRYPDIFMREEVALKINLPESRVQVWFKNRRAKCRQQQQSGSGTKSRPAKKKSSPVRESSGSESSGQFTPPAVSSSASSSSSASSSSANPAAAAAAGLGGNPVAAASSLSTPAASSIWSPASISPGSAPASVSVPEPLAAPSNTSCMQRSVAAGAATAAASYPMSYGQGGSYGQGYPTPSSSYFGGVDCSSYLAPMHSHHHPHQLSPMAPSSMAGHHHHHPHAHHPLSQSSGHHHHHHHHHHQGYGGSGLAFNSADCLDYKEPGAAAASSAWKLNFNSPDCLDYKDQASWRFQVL

| effect of a mutation on the interaction | Variant |
| --- | --- |
| with no effect | MSCQQNQQQCQPPPKYIPKCPPKCLTPRCPPKCPPKCPPVSSCCSVSSGGCCGSSSGGSCGSSSGGCCSSGGGGCCLSHHRRRRSHCHRPQSSGCCSQPSGGSSCCGGGSGQHSGGCC |

Variants of: B1
Conditions: with kra32_human KRTAP3-2, Q9BYR7
Sequence of kra32_human KRTAP3-2, Q9BYR7 (Q9BYR7 whole entry): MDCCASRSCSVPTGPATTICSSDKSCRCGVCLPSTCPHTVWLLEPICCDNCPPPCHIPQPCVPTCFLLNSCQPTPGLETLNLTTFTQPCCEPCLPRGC

| effect of a mutation on the interaction | Variant |
| --- | --- |
| with no effect | MSCQQNQQQCQPPPKYIPKCPPKCLTPRCPPKCPPKCPPVSSCCSVSSGGCCGSSSGGSCGSSSGGCCSSGGGGCCLSHHRRRRSHCHRPQSSGCCSQPSGGSSCCGGGSGQHSGGCC |

Variants of: B1
Conditions: with nt2na_human NOTCH2NLA

| effect of a mutation on the interaction | Variant |
| --- | --- |
| with no effect | MSCQQNQQQCQPPPKYIPKCPPKCLTPRCPPKCPPKCPPVSSCCSVSSGGCCGSSSGGSCGSSSGGCCSSGGGGCCLSHHRRRRSHCHRPQSSGCCSQPSGGSSCCGGGSGQHSGGCC |

Variants of: B2
Conditions: with bex5_human BEX5, Q5H9J7
Sequence of bex5_human BEX5, Q5H9J7 (Q5H9J7 whole entry): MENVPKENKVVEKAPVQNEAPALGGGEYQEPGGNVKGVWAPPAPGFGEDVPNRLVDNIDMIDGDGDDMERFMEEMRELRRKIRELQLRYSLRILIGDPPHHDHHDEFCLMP

| effect of a mutation on the interaction | Variant |
| --- | --- |
| with no effect | MLLGQKSQRYKAEEGLQAQGEAPGLMDVQIPTAEEQKAASSSSTLIMGTLEEVTDSGSPSPPQSPEGASSSLTVTDSTLWSQSDEGSSSNEEEGPSTSPDPAHLESLFREALDEKVAELVRFLLRKYQIKEPVTKAEMLESVIKNYKNHFPDIFSKASECMQVIFGIDVKEVDPAGHSYILVTCLGLSYDGLLGDDQSTPKTGLLIIVLGMILMEGSCAPEEAIWEALSVMGLYDGREHSVYWKLRKLLTQEWVQENYLEYRQAPGSDPVRYEFLWGPRALAETSYVKVLEHVVRVNARVRISYPSLHEEALGEEKGV [R218C] |

Variants of: B3
Conditions: with pch2_human TRIP13, Q15645

| effect of a mutation on the interaction | Variant |
| --- | --- |
| with no effect | MATKCGNCGPGYSTPLEAMKGPREEIVYLPCIYRNTGTEAPDYLATVDVDPKSPQYCQVIHRLPMPNLKDELHHSGWNTCSSCFGDSTKSRTKLVLPSLISSRIYVVDVGSEPRAPKLHKVIEPKDIHAKCELAFLHTSHCLASGEVMISSLGDVKGNGKGGFVLLDGETFEVKGTWERPGGAAPLGYDFWYQPRHNVMISTEWAAPNVLRDGFNPADVEAGLYGSHLYVWDWQRHEIVQTLSLKDGLIPLEIRFLHNPDAAQGFVGCALSSTIQRFYKNEGGTWSVEKVIQVPPKKVKGWLLPEMPGLITDILLSLDDRFLYFSNWLHGDLRQYDISDPQRPRLTGQLFLGGSIVKGGPVQVLEDEELKSQPEPLVVKGKRVAGGPQMIQLSLDGKCLYITTSLYSAWDKQFYPDLIREGSVMLQVDVDTVKGGLKLNPNFLVDFGKEPLGPALAHELRYPGGDCSSDIWI [R398C] |

Variants of: B4
Conditions: with pkd2_human PKD2, Q13563

| effect of a mutation on the interaction | Variant |
| --- | --- |
| disrupting interaction strength | MLLGQKSQRYKAEEGLQAQGEAPGLMDVQIPTAEEQKAASSSSTLIMGTLEEVTDSGSPSPPQSPEGASSSLTVTDSTLWSQSDEGSSSNEEEGPSTSPDPAHLESLFREALDEKVAELVRFLLRKYQIKEPVTKAEMLESVIKNYKNHFPDIFSKASECMQVIFGIDVKEVDPAGHSYILVTCLGLSYDGLLGDDQSTPKTGLLIIVLGMILMEGSCAPEEAIWEALSVMGLYDGREHSVYWKLRKLLTQEWVQENYLEYRQAPGSDPVRYEFLWGPRALAETSYVKVLEHVVRVNARVRISYPSLHEEALGEEKGV [R218C] |

Variants of: B5
Conditions: with kr109_human KRTAP10-9, P60411

| effect of a mutation on the interaction | Variant |
| --- | --- |
| disrupting interaction strength | MSCQQNQQQCQPPPKYIPKCPPKCLTPRCPPKCPPKCPPVSSCCSVSSGGCCGSSSGGSCGSSSGGCCSSGGGGCCLSHHRRRRSHCHRPQSSGCCSQPSGGSSCCGGGSGQHSGGCC |
